US20260232826A1, “ANTIBODY-DRUG CONJUGATES AND THEIR USES” (Mablink Bioscience, priority 2022, published 2026)
Entries after “also recorded” stand apart in the source; their conditions may differ.

Columns and labels:
[1] = biological target: T1, recombinant human FRα (Homo sapiens, UniProt P15328); assay: Recombinant FRα-binding affinity by ELISA (human); details: FIG. 4A/4B
T1 construct: purchased Sino Biological 11241-H08H
Experimental: Sandwich ELISA assays are performed using 96-well high-binding ELISA plates (Corning Inc., New York, NY, USA, Cat #3590). Plates are coated using 100 µL/well of recombinant human FRα protein (Sino Biological cat #11241-H08H) in PBS (pH 7.4) at 2 μg/mL and incubated overnight at 4° C. After 2 washes with PBS-T (PBS+0.05% Tween-20), the plates are blocked with 200 μL/well of incubation buffer (PBS-T+0.1% BSA) for 1 h at room temperature. The plates are washed 4 times with PBS-T, and 100 μL of a threefold dilution series of tested compound (antibody or antibody-drug conjugate) is added. Then, the plates are incubated for 2 h at room temperature in the dark. After 5 washes with PBS-T, plates are incubated 1 h at room temperature with 100 μL/well of a goat anti-human IgG (H+L) HRP conjugated antibody (Jackson Immunoresearch cat #109-035-088), previously diluted 1:250000 in incubation buffer. After 5 washes with PBS-T, TMB substrate solution (Thermo-Fisher cat #N301) is added. Peroxidase activity is stopped with 0.18M H2SO4 and absorbance is read at 450 nm (reference wavelength 650 nm) using a Thermo Scientific MultiSkan EX microplate reader. Sigmoidal fittings were performed using GraphPad Prism 9 software.
Sandwich ELISA assays were performed using 96-well high-binding ELISA plates (Corning Inc., New York, NY, USA, Cat #3590). Plates were coated using 100 μL/well of recombinant human FRα protein (Sino Biological cat #11241-H08H); recombinant cynomolgus FRα protein (Sino Biological cat #90950-C08H); recombinant rat FRα protein (Sino Biological cat #81073-R08H) or recombinant mouse FRα protein (Sino Biological cat #50573-M08H) in PBS (pH 7.4) at 2 μg/mL and incubated overnight at 4° C. After 2 washes with PBS-T (PBS+0.05% Tween-20), the plates were blocked with 200 μL/well of incubation buffer (PBS-T+0.1% BSA) for 1 h at room temperature. […] Peroxidase activity was stopped with 0.18M H2SO4 and absorbance was read at 450 nm (reference wavelength 650 nm) using a Thermo Scientific MultiSkan EX microplate reader. […]

[2] = biological target: T1, recombinant human FRα; assay: Human FRα-binding affinity by SPR (Biacore); details: Biacore T200, 25° C. (FIG. 5)
Experimental: Surface plasmon resonance (SPR) experiments are performed on a Biacore T200 apparatus, at 25° C. Tested antibody or ADC are captured at low density (300-500 RU) on a CM5 series S sensorchip, beforehand functionalized with a Human Antibody Capture kit (Cytiva cat #BR100839). A functionalized surface/flow cell treated similarly but omitting ligand is used as reference. To measure kinetics rates and affinities, recombinant human FRα (Sino Biological cat #11241-H08H) analyte sample is injected in duplicates at 5 concentrations (0.5, 1, 2, 4, 8 nM) in series using single cycle kinetics strategy and at constant […] flow rate of running buffer (HBS-EP+, Cytiva cat #BR100669) with contact pulses of 300 sec. The dissociation phase is measured by injection of running buffer for 900 sec. Between duplicates, surfaces/flow cells are regenerated with 3M MgCl2 to remove both analyte and ligand, and fresh ligand capture are done using identical conditions. The data analysis is performed using the Biacore Evaluation software after subtraction of reference surface and analyte zero-concentration signals. […]
Surface plasmon resonance (SPR) experiments were performed on a Biacore T200 apparatus, at 25° C. […] The dissociation phase was measured by injection of running buffer for 900 sec. […]

[3] = biological target: T2, extracellular human FRα expressed on cancerous cell lines (Homo sapiens, UniProt P15328); assay: Cell-binding affinity by flow cytometry; details: APC-labelled antibody or ADC, flow cytometry (FIG. 6)
T2 construct: endogenous in cells; host or cells: human cancer cell lines (ATCC/DSMZ/ECACC); BT-474 as FRα-negative control
Experimental: Antibody or ADC binding to extracellular human FRα expressed on cancerous cell lines is assessed by flow cytometry. Tested antibody or ADC is conjugated to APC fluorophore using LYNX Rapid APC Antibody Conjugation Kit according to the manufacturer's protocol (Bio-Rad, Cat #LNK032APC). Into 500000 cells (suspended in 100 μL of PBS in flow cytometry plastic tubes) is added 5 μL of a 10 μg/mL solution of tested APC-labelled antibody or ADC. Cells are incubated 20 min in the dark, are washed with PBS 3 times by centrifugation and are re-suspended in 200 μL of PBS for analysis. Flow cytometry is performed using a BD Fortessa flow cytometer controlled by BD FACSDiva software (BD Biosciences) and data are analyzed using FlowJo software (BD Bioscience).
Antibody or ADC binding to extracellular human FRα expressed on cancerous cell lines was assessed by flow cytometry. Tested antibody or ADC was conjugated to APC fluorophore using LYNX Rapid APC Antibody Conjugation Kit according to the manufacturer's protocol (Bio-Rad, Cat #LNK032APC). Into 500000 cells (suspended in 100 μL of PBS in flow cytometry plastic tubes) was added 5 μL of a 10 μg/mL solution of tested APC-labelled antibody or ADC. Cells were incubated 20 min in the dark, were washed with PBS 3 times by centrifugation and were re-suspended in 200 μL of PBS for analysis. Flow cytometry was performed using a BD Fortessa flow cytometer controlled by BD FACSDiva software (BD Biosciences) and data were analyzed using FlowJo software (BD Bioscience).

[4] = system: FRα positive cancerous cell lines; assay: In vitro cytotoxicity assay (MTT) on FRα+ cancerous cell lines; type: cell-based, Human; details: 144 hours incubation, several FRα positive cell lines (FIG. 3)
Experimental: In vitro cytotoxicity of compound exatecan mesylate was assessed on several FRα positive cancerous cell lines. Cells were plated in 96-well plates at an appropriate density depending on the cell line (between 1000 and 10000 cells/well in 100 μL of appropriate culture media) and incubated at 37° C. for 24 hours. Serial dilutions of the tested compound previously dissolved in culture media (50 μL) were added, and incubation was carried at 37° C. out for 144 hours. MTT (5 mg/mL, 20 μL, Sigma-Aldrich) was added into the wells, and incubation was continued for 1 to 2 hours at 37° C. Culture media was then carefully removed, and well content was homogeneously dissolved with acidified isopropanol. Absorbance values were measured on a Multiskan™ Sky microplate reader (Thermo Scientific) using a wavelength of 570 nm (with a reference wavelength of 690 nm). The IC50 concentration values compared to untreated control cells were determined using inhibition dose response curve fitting (GraphPad Prism 9).

T1 sequence (P15328 25-234): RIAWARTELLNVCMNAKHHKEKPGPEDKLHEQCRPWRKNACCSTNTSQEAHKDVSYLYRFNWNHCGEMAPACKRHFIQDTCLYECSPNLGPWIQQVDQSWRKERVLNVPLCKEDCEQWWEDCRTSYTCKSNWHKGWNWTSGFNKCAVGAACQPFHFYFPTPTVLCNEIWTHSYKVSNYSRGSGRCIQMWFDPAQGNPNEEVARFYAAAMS
T2 sequence (P15328 25-234): as above

Substance | recombinant human FRα binding (ELISA), in words [1] | recombinant human FRα binding (SPR), in words [2] | human FRα cell binding [3] | IC50's in vitro potencies [4]
farletuzumab-LALA: Fc-silent farletuzumab with L234A and L235A mutations, heavy chain SEQ ID NO:9, light chain SEQ ID NO:10 | No loss of binding | No loss of binding | Comparable human FRα cell binding | –
mirvetuximab: humanized anti-FRα antibody, heavy chain SEQ ID NO:16, light chain SEQ ID NO:17 | No significant loss of binding | – | binding affinity appeared identical | –
farletuzumab: anti-FRα IgG1 antibody, heavy chain SEQ ID NO:11, light chain SEQ ID NO:10 | No loss of binding | No loss of binding | Comparable human FRα cell binding; also recorded: binding affinity appeared identical | –
Exatecan Mesylate | – | – | – | sub-nM to low-nM
